Measured values: patent publication US20240400689A1 (ANTENGENE BIOLOGICS, published 2024)

T1: human CD276 protein (human, UniProt Q5ZPR3 29-534)
T1 construct: whole, on cells; for SKOV3 and the other cancer lines the protein is the cells' own; also called B7-H3; B7H3
T1 sequence (looked up): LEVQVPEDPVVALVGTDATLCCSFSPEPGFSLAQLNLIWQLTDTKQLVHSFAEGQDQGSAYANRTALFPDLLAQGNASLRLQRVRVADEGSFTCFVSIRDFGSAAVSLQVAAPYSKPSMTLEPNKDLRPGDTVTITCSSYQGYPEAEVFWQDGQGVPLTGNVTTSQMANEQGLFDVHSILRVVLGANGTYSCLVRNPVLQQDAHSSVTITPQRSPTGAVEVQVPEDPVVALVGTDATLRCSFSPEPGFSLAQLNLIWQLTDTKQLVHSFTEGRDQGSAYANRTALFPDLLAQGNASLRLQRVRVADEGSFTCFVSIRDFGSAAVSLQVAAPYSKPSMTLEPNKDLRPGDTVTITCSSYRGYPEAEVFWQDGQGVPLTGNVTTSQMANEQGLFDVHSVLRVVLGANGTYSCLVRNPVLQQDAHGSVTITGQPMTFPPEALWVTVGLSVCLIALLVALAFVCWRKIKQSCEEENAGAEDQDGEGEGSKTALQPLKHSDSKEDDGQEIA

T2: mouse CD276 protein (mouse, UniProt Q8VE98 29-316)
T2 construct: whole, on cells; also called mCD276; CHO-S-mCD276
T2 sequence (looked up): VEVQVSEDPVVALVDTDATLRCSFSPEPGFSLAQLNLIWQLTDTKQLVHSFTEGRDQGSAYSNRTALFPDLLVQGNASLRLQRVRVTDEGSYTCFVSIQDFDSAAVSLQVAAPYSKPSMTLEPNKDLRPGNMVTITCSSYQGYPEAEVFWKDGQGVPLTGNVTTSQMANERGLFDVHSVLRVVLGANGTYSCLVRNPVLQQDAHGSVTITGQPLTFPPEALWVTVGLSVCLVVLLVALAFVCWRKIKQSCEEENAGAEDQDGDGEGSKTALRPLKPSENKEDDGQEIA


Key:
[1] = biological target: T1, human CD276 protein; experiment: FACS on CHO-S-hCD276 cells
Method: (§1) Screening & Expansion—The subcloning plates were screened by protein or cell-based Elisa, and the subclones with good binding ability were expanded to 24-wells for confirmation tests. The specificity and cross-reactivity of these subclones were confirmed with FACS analysis. Briefly, parental CHO-S cells, CHO-S-hCD276, CHO-S cell line stably over-expressing Macaca fascicularis CD276, CHO-K1 S, cell line stably over-expressing mouse CD276 were incubated with antibodies produced by each subclone respectively. Fluorescent dye-conjugated secondary antibody was used to detect the binding of the primary antibody with the cells. Median fluorescence intensity was measured by FACS analysis.

[2] = biological target: T3, Macaca fascicularis CD276 (Macaca fascicularis); experiment: FACS on CHO-S-cynoCD276 cells
T3 construct: whole, on cells; also called cynomolgus monkey CD276; cynoCD276
Method: as §1

[3] = biological target: T2, mouse CD276 protein; experiment: FACS on CHO-S-mCD276 cells
Method: as §1

[4] = biological target: T1, human CD276 protein; experiment: FACS on SKOV3 cells
Text: Sequences of 31 mouse antibodies from Table 5 were selected to generate and produce human IgG1 chimeric antibodies. The binding affinity of these antibodies and bench mark antibody, Enoblituzumab (see U.S. Pat. No. 8,802,091, MGA271, specifically with a construct designated as hBRCA84D-2) and MGC018 (an antibody-drug-conjugate, in which the mAb MGA017 (human IgG1) is conjugated via a cleavable linker to the prodrug seco-DUocarmycin hydroxyBenzamide Azaindole (DUBA), an alkylating agent that can damage DNA in both dividing and non-dividing cells, thereby causing cell death) with human patient derived ovarian cancer cell line, SKOV3, was determined by FACS analysis.
1. Digested cells using Trypsin (1×); Centrifuged the harvested cells at 300 g for 3 min and discarding the supernatant. […] 2. Washed the cells 2 times with FACS buffer by centrifuging at 300 g for 3 min and discarding the supernatant. [0445] 3. […] Kept the cells in dark for FACS analysis.

FACS MFI [1] | FACS MFI [2] | FACS MFI [3] | EC50 [4] | MFI (Max) [4] | Binder
400000 | 10100 |  |  |  | 10-B9-D10-A12 (antibody, V domains shown, mouse monoclonal antibody (hybridoma)) VH: EVQLQESGPELVRPGVSVKISCKGSGYTFTDYTMHWVKLSHAKSLEWIGVISTYYGNTNYNQKFKGKATLTVDKSSSTAYMELARLTSEDSAIYYCARASYGSGYGPYYWYFDVWGAGTTVTVSS VL: DIQMTQSPASLFASVGETVTITCRASEKIYSYLAWYFQKQGKSPQFLVYNANALAEGVPSRFSGSGSGTQFSLKINSLQPEDFGTYYCQHHYGTPVTFGAGSKLELK
40400 | 58600 | 7370 |  |  | 8-B4-F5-E11 (antibody, V domains shown, mouse monoclonal antibody (hybridoma)) VH: QVQLQQPGAELVKPGASVKLSCKASGDTFTSYWMHWVKQRPGQGLEWIGMIHPDSGTRNYNEKVMSKATLNVDKSSSTAYLHLSSLTSEDSAVYYCSRSYGSRLAWFAYWGQGTLVTVSA VL: QAVVTQESALTTSPGETVTLTCRSSTGAVTTSNFANWVQEKPDHLFTGLIGGTNNRAPGVPARFSGSLIGDKAALTITGAQTEDEAVYFCALWYTNHFIFGSGTKVTVL
138000 | 96300 | 8220 |  |  | 30-C7-C11-D4 (antibody, V domains shown, mouse monoclonal antibody (hybridoma)) VH: EVQLVESGPGLVKPSQSLSLTCTVTGYSITSDYAWNWIRQFPGNKLEWMGYISHSGSTSYNPSLKSRISITRDTSKNQFFLQLNSVTTEDTATYYCARSLGRRWYFDVWGAGTTVTVSS VL: DIVMTQSPSSLAMSVGQKVTLSCKSSQSLLNSSTQKNYLAWYQQKPGQSPKLLVYFASTRDSGVPDRFIGSGSGTEFTLTISSVQAEDLADYFCQQHYIIPFTFGAGTKLEIK
47000 | 35100 | 1300 |  |  | 30-E2-G7-G7 (antibody, V domains shown, mouse monoclonal antibody (hybridoma)) VH: EVQLQESGGGLVKPGGSLKLSCAASGFTFSYYAMSWVRQTPEKRLEWVATINGDGSHTYYPDSVRGRFTISRDNAKNTLYLQVSSLRSEDTAMYYCASLLQLGPFWGQGTTLTVSS VL: DIVMTQSQKFMSTSVGDRVSVTCKASQNVGTNVAWYHQRPGQSPKPLIYSASYRYSGVPDRFTGSGSGTDFTLTISNVQSEDLAEYFCQQYNNYPLTFGSGTKLEIK
 |  |  | 1.78 µg/mL | 200 | 6-H11-G5-D8 (human IgG1 chimeric antibody) (antibody, V domains shown, human IgG1 chimeric antibody of the mouse clone) VH: EVQLQESGPELVKPGTSVKLSCKASGYTFTSYDINWVRQRPEQGLEWIGWIFPGNGDTYYNEKFKGKATLTSDKSSSTAYMQLSRLTSEDSAVYFCARDLRLGTFDYWGQGTTLTVSS VL: QIVLTQSPEIMSASPGEKVTMTCSASSSVSYIHWYQQKSGTSPKRWIYDTSKLASGVPARFSGSGSGTSYSLTIRSMEAEDAATYYCQQGSSNPRTFGGGTKLELK
149000 | 16800 | 1370 |  |  | 13-E4-G9-A4 (antibody, V domains shown, mouse monoclonal antibody (hybridoma)) VH: EVMLVESGGGLVKPGGSLKFSCAASGFTFITYAMSWVRQTPEKRLEWVATISGGGIDTYYPDSVKGRFTISRDNAKNTLYLQVNSLRSEDTAMYYCTRQGSQGWGAMDYWGQGTSVTVSS VL: QIVLTQSPPIMSASPGERVTMTCRASSRVSFMHWYQQKSGTSPRRWIYETSKLASGVPDRFSGSVSGTSYSLTISSMEAEDAATYYCQQWSSNPLTFGAGTKLELK
148000 | 39100 | 1160 |  |  | 25-C8-D7-C5 (antibody, V domains shown, mouse monoclonal antibody (hybridoma)) VH: EVQLQESGGGLVKPGGSLKFSCAASGFTFSTYAMSWVRQTPEKRLEWVATISGGGIDTYYPDSVKGRFTISRDNAKNTLYLQMNSLRSEDTAMYYCARQGSKGWGAMDYWGQGTSVTVSS VL: QIVLTQSPAIMSASPGEKVTMTCRASSSVSFMHWYQQKSGTSPKRWIYETSKLASGVPDRFSGSGSGTSYSLTISSMEAEDAATYYCQQWSSNPLTFGAGTKLELK
63900 | 12100 | 1320 |  |  | 8-C3-E3-F3 (antibody, V domains shown, mouse monoclonal antibody (hybridoma)) VH: EVQLVESGGGLVQPGGSLKLSCAASGFTFSNYGLSWVRLTPDKRLEVVATIGSYGGNTYYPDSVKGRFTISRDNAKNTLYLQMSSLKSEDTAIYYCARDIYYGNSEAWFAYWGQGTLVTVSA VL: DIVMTQAAFSNPVTLGTSASISCRSSKSLLHSNGITYLYWYLQKPGQSPQLLIYQMSNLASGVPDRFSSSGSETDFTLRISRVEAEDVGVYYCAQNLELPWTFGGGTKLEIK
96800 | 146000 | 1360 |  |  | 9-B9-H11-G7 (antibody, V domains shown, mouse monoclonal antibody (hybridoma)) VH: DVQLQESGPGLVKPSQSLSLTCSVTGYSITSGYYWNWIRQFPGNKLEWMVYISYDGTNNYNPSLKNRISITRDTSKNQFFLKLNSVTTEDTATYYCARGDSNSYYFDYWGQGTTLTVSS VL: QAVVTQESALTTSPGGTVILTCRSSTGAVTTSNYANWVQEKPDHLFTGLIGGTSNRAPGVPVRFSGSLIGDKAALTITGAQTEDDAMYFCALWYRTHYVFGGGTKVTVL
53200 | 35700 | 1420 |  |  | 9-G12-D6-A11 (antibody, V domains shown, mouse monoclonal antibody (hybridoma)) VH: DVQLQVSGPGLVKPSQSLSLTCSVAGYSITSDYYWNWIRQFPGNKLEWMGYISYDGTNNYNPSLKNRISITRDTSKGQFFLKFNSVTTEDTATYYCARGKDGSYYFDYWGQGTTLTVSS VL: QAVVTQESALTTSPGGTVILTCRSSTGAVTTSNYANWVQEKPDHLFTGLIGGTSNRAPGVPVRFSGSLIGDKAALTITGAQTEDDAMYFCALWYRTHYVFGGGTMVTVL
62500 | 99400 | 6610 |  |  | 15-G1-D1-E3 (antibody, V domains shown, mouse monoclonal antibody (hybridoma)) VH: QVQLQQPGAELVKPGTSVKLSCKASGYTFTSYWIHWVKQRPGQGLEWIGMIHPKSGTVDYNEKFKSKATLTADKSSNTAYMQLSSLTSEASVVYYCARGENYDYRPQFVYWGQGTLVTVSA VL: QLVLTQSSSASFSLGASAKLTCTLSSQHSTYTIEWYQQQPLKPPKYVMELKKDGSHRTGDGIPDRFSGSSSGADRYLSISNIQPEDEAIYICGVGDTIKEQFVYVFGGGTKVTVL
77000 | 13200 | 1340 |  |  | 20-C5-D7-D3 (antibody, V domains shown, mouse monoclonal antibody (hybridoma)) VH: EVQLVESGGDLVKPGGSLKLSCAASGFTFRSYGMSWVRQTPDKRLEWVATISGGGNYTYYPDSVKGRFTISRDNAKNTLYLQMSSLKSEDTAMYYCARHEGLPLDYWGQGTTLTVSS VL: DIQMTQSPASLSASVGETVTITCRASENIYSYLAWYQQKQGKSPQLLVYNAKTLAEGVPSRFSGSGSGTQFSLKINSLQPEDFGNFYCQHHYGTPTWTFGGGTKLEIK
88800 | 51100 | 67000 |  |  | 20-F8-B5-G2 (antibody, V domains shown, mouse monoclonal antibody (hybridoma)) VH: EVQLQESGPSLVKPSQTLSLTCSVTGDSITSAYWNWIRKFPGNKLEYMGYISNSGSTYYNPSLKSRISITRDTSKNQYYLQLNSVTTEDTGTYYCVRGERYYGYGAYWGQGTLVTVSA VL: DIVMTQATPSVPVTPGESISISCRSSKSLLHSNGNTYLYWFLQRPGQSPQLLIYRMSNLASGVPDRFSGSGSGTAFTLRISRVEAEDVGVYYCMQHLEYPFTFGAGTKLELK
5650 | 4320 | 17400 |  |  | 10-G6-C4-B2 (antibody, V domains shown, mouse monoclonal antibody (hybridoma)) VH: EVQLVESGGGLVQPGGSLRLSCATSGFTLSDYYMSWVRQPPGKAPEWLGFMRNKANGYTTEYSASVRGRFTISRDTSQSIIYLQMNTLRAEDGATYYCVRDRDGRPFAYWGQGTLVTVSA VL: DIVMTQSPSSLTVTAGEKVTMSCKSSQSLLNSINQKNFLTWYQQKPGQPPKLLIYWASTRESGVPDRFTGSGSGTDFTLTISSVQAEDLAIYYCQNDYTYPLTFGTGTKLELK
